Test: Peptide content (assay) of lyophilized drug product by UPLC-UV at 220 nm, conventional method (peptide as reference standard)
Type: physicochemical
Settings: DP-5P batch, T0M, conventional method (peptide as RS)
Description: The purity including individual related substances and the assay of a DP-5P (5 peptides, SEQ ID NOs: 1-5) and DP-7P (7 peptides, SEQ ID NOs: 6-12) mixture were determined by reversed phase rapid HPLC (UPLC) using a mobile phase gradient of acetonitrile and water and UV detection at λ=220 nm.
• Column: RP C18, e.g. Waters Acquity, BEH 130 PST (1.7 μm, 150×2.1 mm) • Sample matrix Eluent A : Eluent B=85:15 (v/v). • Sample concentration 100 μg/mL net peptide (of each drug substance mixture), duplicate • Injection volume: 5 μL • Column temperature: 65° C. • Sample temperature: 5° C. • Detection: UV (λ=220 nm) • Flow rate: 0.3 mL/min • Eluent A: 0.05%v/v TFA and 1%v/v Acetonitrile (ACN) in water • Eluent B: 0.05%v/v TFA in ACN
The relative retention times (RRTs) assigned to peptides and related substances both in a DP-5P (SEQ ID NO: 1-5) and DP-7P (SEQ ID NO: 6-12) mixture was calculated with reference to the retention time of the peptide eluting in the middle (FIG. 1 and FIG. 2). That retention time was used as reference as the main peak of this drug substance was detected approx. in the center of the chromatogram. The related substances were determined by area normalization. The individual related substances were reported≥0.10%a/a. The total related substances were calculated as the sum of all individual related substances equal to or greater than a disregard limit of 0.0500%a/a. The purity was calculated as the difference between total related substances and 100%.
The assay of each of the peptides was calculated against a reference standard solution containing either five peptides (DP-5P) or seven peptides (DP-7P) and was expressed in percent and in mg net peptide/vial. For this reference method, the absorption ratio between the reference substance and the analyte is 1, because the reference substance is the analyte itself.
At T=0 months (TOM) the peptide content was measured using the conventional method of Example 2. From T=48 months (T48M) onwards the peptide content was measured with the conventional method of Example 2 and the method according to the invention of Example 3.

Question: Which “Assay (mg/vial)” value does the source give for DKCLKFYSKISEYRHYCYSLYGTTL (Peptide 1) here?
Answer: 0.4047 mg/vial

Question: What about the “Label claim (% target 0.40 mg/vial)” value of the same sequence?
Answer: 101%

Question: What does the source list for “LYCYEQLNDSSEEEDEIDGPAGQAEPDRAHYNIVT (Peptide 2)”?
Answer: Assay (mg/vial): 0.4085 mg/vial; Label claim (% target 0.40 mg/vial): 102%

Question: With “RCINCQKPLCPEEKQRHLDKKQRFHNIRGRWT (Peptide 4)” as the sequence, how does the “Assay (mg/vial)” value read?
Answer: 0.3936 mg/vial

Question: And the “Label claim (% target 0.40 mg/vial)” value?
Answer: 98%

Same assay, conditions: DP-5P batch, T48M, conventional method (peptide as RS)

Question: For DKCLKFYSKISEYRHYCYSLYGTTL (Peptide 1), which “Assay (mg/vial)” value is on record?
Answer: 0.4107 mg/vial

Question: What about the “Label claim (% target 0.40 mg/vial)” value of the same sequence?
Answer: 103%

Question: For “LYCYEQLNDSSEEEDEIDGPAGQAEPDRAHYNIVT (Peptide 2)”, which “Assay (mg/vial)” value is on record?
Answer: 0.4141 mg/vial

Question: What about the “Label claim (% target 0.40 mg/vial)” value of the same sequence?
Answer: 104%

Question: With “RCINCQKPLCPEEKQRHLDKKQRFHNIRGRWT (Peptide 4)” as the sequence, how does the “Assay (mg/vial)” value read?
Answer: 0.3937 mg/vial

Question: What about the “Label claim (% target 0.40 mg/vial)” value of the same sequence?
Answer: 98%

Same assay, conditions: DP-5P batch, T54M, conventional method (peptide as RS)

Question: Which “Assay (mg/vial)” value does the source give for DKCLKFYSKISEYRHYCYSLYGTTL (Peptide 1) here?
Answer: 0.4088 mg/vial

Question: And the “Label claim (% target 0.40 mg/vial)” value?
Answer: 102%

Question: Which “Assay (mg/vial)” value does the source give for “LYCYEQLNDSSEEEDEIDGPAGQAEPDRAHYNIVT (Peptide 2)” here?
Answer: 0.4149 mg/vial

Question: What about the “Label claim (% target 0.40 mg/vial)” value of the same sequence?
Answer: 104%

Question: Which results are given for “RCINCQKPLCPEEKQRHLDKKQRFHNIRGRWT (Peptide 4)”?
Answer: Assay (mg/vial): 0.3911 mg/vial; Label claim (% target 0.40 mg/vial): 98%

Same assay, conditions: DP-5P batch, T60M, conventional method (peptide as RS)

Question: Which “Assay (mg/vial)” value does the source give for DKCLKFYSKISEYRHYCYSLYGTTL (Peptide 1) here?
Answer: 0.4082 mg/vial

Question: What about the “Label claim (% target 0.40 mg/vial)” value of the same sequence?
Answer: 102%

Question: Which results are given for “LYCYEQLNDSSEEEDEIDGPAGQAEPDRAHYNIVT (Peptide 2)”?
Answer: Assay (mg/vial): 0.4174 mg/vial; Label claim (% target 0.40 mg/vial): 104%

Question: With “RCINCQKPLCPEEKQRHLDKKQRFHNIRGRWT (Peptide 4)” as the sequence, how does the “Assay (mg/vial)” value read?
Answer: 0.3913 mg/vial

Question: And the “Label claim (% target 0.40 mg/vial)” value?
Answer: 98%

Same assay, conditions: DP-7P batch, T0M, conventional method (peptide as RS)

Question: For KQQLLRREVYDFAFRDLCIVYRDGN (Peptide 8), which “Assay (mg/vial)” value is on record?
Answer: 0.4357 mg/vial

Question: What about the “Label claim (% target 0.40 mg/vial)” value of the same sequence?
Answer: 109%

Same assay, conditions: DP-7P batch, T48M, conventional method (peptide as RS)

Question: For KQQLLRREVYDFAFRDLCIVYRDGN (Peptide 8), which “Assay (mg/vial)” value is on record?
Answer: 0.4323 mg/vial

Question: What about the “Label claim (% target 0.40 mg/vial)” value of the same sequence?
Answer: 108%

Same assay, conditions: DP-7P batch, T54M, conventional method (peptide as RS)

Question: Which “Assay (mg/vial)” value does the source give for KQQLLRREVYDFAFRDLCIVYRDGN (Peptide 8) here?
Answer: 0.4289 mg/vial

Question: What about the “Label claim (% target 0.40 mg/vial)” value of the same sequence?
Answer: 107%

Same assay, conditions: DP-7P batch, T60M, conventional method (peptide as RS)

Question: For KQQLLRREVYDFAFRDLCIVYRDGN (Peptide 8), which “Assay (mg/vial)” value is on record?
Answer: 0.4294 mg/vial

Question: And the “Label claim (% target 0.40 mg/vial)” value?
Answer: 107%

Test: Peptide content (assay) of lyophilized drug product by UPLC-UV at 220 nm, method according to the invention (USP reserpine reference standard, RRF)
Type: physicochemical
Settings: DP-5P batch, T48M, method according to the invention (USP RS)
Source text: The UPLC method similar to Example 1 was used for the quantification of analytes (i.e. the individual peptides) in mixtures DP-5P (SEQ ID NO: 1-5) and DP-7P (SEQ ID NO: 6-12) and for the determination of content uniformity of mixtures DP-5P and DP-7P (lyophilized product). The method is based on the use of an external reference standard. The relative response factor (ratio of molar extinction coefficients, RRF) against this external reference standard has been established for each peptide. The purity, individual related substances, and the assay of DP-5P and DP-7P were determined by reversed phase rapid HPLC (UPLC) using a mobile phase gradient of ACN/IPA and water and UV detection at λ220 nm.
The following lyophilized peptide compositions were used: DP-5P comprising peptides represented herein by SEQ ID NO: 1-5 admixed at equal net weights of 0.40 mg of each peptide per vial (total amount of protein per vial being 2.00 mg) and 0.56 mg TFA per vial; and DP-7P comprising peptides represented herein by SEQ ID NO: 6-12 admixed at equal net weights of 0.40 mg of each peptide per vial (total amount of protein per vial being 2.80 mg) and 0.96 mg TFA per vial. The following chemicals were used: Acetonitrile, (Biosolve, 01204102); UPLC water, (Type 1, milli-Q); trifluoroacetic acid, (Chem Lab, CLoo.2094.0001), 2-propanol, (UPLC/MS grade, Biosolve, 16264102); Reserpine, (USP, Sigma Aldrich, 1601000). The following equipment was used: QuanRecovery vials, (Waters, 186009186); UPLC pump equipped with a gradient system, autosampler, and UV detection (Waters Acquity or equivalent) and mixer volume 425 μL.
• Mobile phase A: 0.1% (v/v) TFA in water • Mobile phase B: 0.1% (v/v) TFA in 70/30 ACN/IPA • Diluent A: 0.05% (v/v) TFA in water • Diluent B: 0.05% (v/v) TFA in ACN • Blank solution: 80/20 (v/v) diluent A/diluent B • Purge solvent: 80/20 (v/v) water/ACN • Needle wash: 0.05% (v/v) TFA in 80/20 (v/v) water/ACN
5.00 mg Reserpine reference material was accurately weighed and added into a 50 mL volumetric flask. 40.0 mL of blank solution was added, by means of a volumetric pipette. The solution was stirred for 10 min, by means of a magnetic stirrer, until fully dissolved. The solution was diluted to volume with blank solution and mixed well.
Transfer of 2.0 mL, by means of a volumetric pipette, of stock reference solution 1 into a 20 mL volumetric flask. Diluted to volume with blank solution and homogenized.
This sample preparation was setup for lyophilized products DP-5P and DP-7P in an initially sealed container. Before opening and dissolving the drug product, the vials were equilibrated at room temperature for at least 1 hour. The content of the vial was dissolved with 0.8 mL of diluent B, and stirred for 20 min, using a magnetic stirrer. 3.2 mL of diluent A were added. The solution was stirred well for 20 min, using a magnetic stirrer. After dissolving the content of the vial, the sample vial was kept on the lab bench for 30 minutes. The solution was stirred briefly and transferred into an HPLC vial.
• Column: Advance Bio Peptide Map (2.7 μm, 250 x 2.1 mm) • Sample matrix 0.05%v/v TFA in ACN : water (1:4 v/v) • Sample concentration 100 μg/mL net peptide (of each drug substance), duplicate • Injection volume: 10 μL • Column temperature: 40° C. • Sample temperature: 5° C. • Detection: UV (λ=220 nm) • Flow rate: 0.2 mL/min • Run time: 65 min • Purge solvent: 80/20 (v/v) water/ACN • Needle wash: 0.05% (v/v) TFA in 80/20 water/ACN (v/v) (20 s) • Seal wash: 90/10 (v/v) water/MeOH • Elution mode: Gradient elution • Eluent A: 0.1%v/v TFA in water • Eluent B: 0.1%v/v TFA in ACN/IPA (70:30 v/v)
The RRF was determined for all 12 peptides, enabling the quantification of each peptide against a reserpine as shown above. For the determination, the absorbance of each peptide in a solution comprising said peptide at a known concentration, and of a reference standard solution comprising reserpine at a known concentration, were measured at 220 nm. […]

Question: With DKCLKFYSKISEYRHYCYSLYGTTL (Peptide 1) as the sequence, how does the “Assay (mg/vial)” value read?
Answer: 0.3910 mg/vial

Question: What about the “Label claim (% target 0.40 mg/vial)” value of the same sequence?
Answer: 98%

Question: For “LYCYEQLNDSSEEEDEIDGPAGQAEPDRAHYNIVT (Peptide 2)”, which “Assay (mg/vial)” value is on record?
Answer: 0.3950 mg/vial

Question: What about the “Label claim (% target 0.40 mg/vial)” value of the same sequence?
Answer: 99%

Question: What does the source list for “RCINCQKPLCPEEKQRHLDKKQRFHNIRGRWT (Peptide 4)”?
Answer: Assay (mg/vial): 0.3820 mg/vial; Label claim (% target 0.40 mg/vial): 96%

Same assay, conditions: DP-5P batch, T54M, method according to the invention (USP RS)

Question: For DKCLKFYSKISEYRHYCYSLYGTTL (Peptide 1), which “Assay (mg/vial)” value is on record?
Answer: 0.3932 mg/vial

Question: And the “Label claim (% target 0.40 mg/vial)” value?
Answer: 98%

Question: With “LYCYEQLNDSSEEEDEIDGPAGQAEPDRAHYNIVT (Peptide 2)” as the sequence, how does the “Assay (mg/vial)” value read?
Answer: 0.3932 mg/vial

Question: And the “Label claim (% target 0.40 mg/vial)” value?
Answer: 98%

Question: Which results are given for “RCINCQKPLCPEEKQRHLDKKQRFHNIRGRWT (Peptide 4)”?
Answer: Assay (mg/vial): 0.3966 mg/vial; Label claim (% target 0.40 mg/vial): 99%

Same assay, conditions: DP-5P batch, T60M, method according to the invention (USP RS)

Question: With DKCLKFYSKISEYRHYCYSLYGTTL (Peptide 1) as the sequence, how does the “Assay (mg/vial)” value read?
Answer: 0.3701 mg/vial

Question: What about the “Label claim (% target 0.40 mg/vial)” value of the same sequence?
Answer: 93%

Question: For “LYCYEQLNDSSEEEDEIDGPAGQAEPDRAHYNIVT (Peptide 2)”, which “Assay (mg/vial)” value is on record?
Answer: 0.3880 mg/vial

Question: What about the “Label claim (% target 0.40 mg/vial)” value of the same sequence?
Answer: 97%

Question: Which “Assay (mg/vial)” value does the source give for “RCINCQKPLCPEEKQRHLDKKQRFHNIRGRWT (Peptide 4)” here?
Answer: 0.3842 mg/vial

Question: And the “Label claim (% target 0.40 mg/vial)” value?
Answer: 96%

Same assay, conditions: DP-7P batch, T48M, method according to the invention (USP RS)

Question: With KQQLLRREVYDFAFRDLCIVYRDGN (Peptide 8) as the sequence, how does the “Assay (mg/vial)” value read?
Answer: 0.3980 mg/vial

Question: And the “Label claim (% target 0.40 mg/vial)” value?
Answer: 99%

Same assay, conditions: DP-7P batch, T54M, method according to the invention (USP RS)

Question: With KQQLLRREVYDFAFRDLCIVYRDGN (Peptide 8) as the sequence, how does the “Assay (mg/vial)” value read?
Answer: 0.3928 mg/vial

Question: What about the “Label claim (% target 0.40 mg/vial)” value of the same sequence?
Answer: 98%

Same assay, conditions: DP-7P batch, T60M, method according to the invention (USP RS)

Question: Which “Assay (mg/vial)” value does the source give for KQQLLRREVYDFAFRDLCIVYRDGN (Peptide 8) here?
Answer: 0.3900 mg/vial

Question: And the “Label claim (% target 0.40 mg/vial)” value?
Answer: 98%

Source: patent publication US20230296569A1, “Substance quantification in complex mixtures” (ISA Pharmaceuticals B.V., priority 2021, published 2023)
